Measurements published in PMC12852381 (2025).

Biological target: DENV-2 Envelope protein (DENV E dimeric protein) (Dengue virus type 2; strain of the BLI …, UniProt P14340)
Test: BLI; Octet RED 96, 24 °C, 1,000 rpm; CR3022 (5 µg/ml) loaded on AHC (anti-hIgG Fc capture) sensors; DENV E dimeric protein diluted three-fold from 6,000 nM; 50 mM Tris, 150 mM NaCl, 0.5% glycerol, pH 8.0; global 1:1 fit
Conditions: both partners purified

B1: CR3022, an antibody against the SARS-CoV-2 spike protein (antibody, V domains shown)
VH: EVQLVQSGTEVKKPGESLKISCKGSGYGFITYWIGWVRQMPGKGLEWMGIIYPGDSETRYSPSFQGQVTISADKSINTAYLQWSSLKASDTAIYYCAGGSGISTPMDVWGQGTTVTVSS
VL: not shown
**Q.** For B1, which Kd is on record?
**A.** 2830 nM
